The data set can be described thus: label from the status in PepcDB records.

From a protein production outcome set (Wang et al. 2014) come the findings set out here.
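Also: failed if final PepcDB status was selected cloned or expressed and not failed if soluble or beyond.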

Regarding “MLHYQIEFDDYRQHLVHVTLRFLADPNQELWLPTWIPGSYLIREFSKHIESVQAYDEAGRILEIKKQQKNRWRLFNTDHELITVEYDAYAYDLSVRGAYVDQTRLYINPACVCLALGGQEEKACEVELFLPQELKHFQLATGLPSKSLVKGRFTLKAENYDQLIDSPFELAEQTRFSFEAGNIAHEMVISGIHATNTERLKNDLEKICATEVALFGSAPFQNYTFMTMATGNSYGGLEHCNSTSLIIPRTDLPKLNEPEEPSEDYQRFLGLCSHEYFHSWLVKFIRPENFARYNLNQESYTSLLWIFEGFTSYYDDLILLRSGVISQESYLKLLKAQIDRYLQNPGRQIQSVAESSFDAWIKFYRQDENSNNAGTSYYNKGCLVALCLDLGLRLRGSSLDALLRLLYQNTEKGVQVNERTIFELCQQLTGDSWIEQINHLINTTDELPLDQLFPEFGLSYALKHDKKMPFGMKLQDKPEGVMVQQVNRYGAAATAGLSAQDVIIAIDGLKASEKLLATYAKQQGIITILAFRRDELMSFEVERSTIDLAEVELVVQDQSKADHWLKV”, the protein production result is listed as “failed”.

Regarding “MLHYVHVGNKKSPNTLLFVHGSGCNLKIFGELEKYLEDYNCILLDLKGHGESKGQCPSTVYGYIDNVANFITNSEVTKHQKNITLIGYSMGGAIVLGVALKKLPNVRKVVSLSGGARFDKLDKDFMEKIYHNQLDNNYLLECIGGIDNPLSEKYFETLEKDPDIMINDLIACKLIDLVDNLKNIDIPVKAIVAKDELLTLVEYSEIIKKEVENSELKIFETGKHFLLVVNAKGVAEEIKNFI”, the protein production result is recorded as “not failed”.

For “MLIFGFIGLFFLNIFSLHAQGIVTNKDAQEEFKWALNSYNNGIYDDALLSFKKILSFDPNNLDYHFWTGNVYYRLGYVEEALMEWRNLKDQGYKVPYLRHLISTIEQRRGIFSNYELNFKKLVKVASLDNSIYKRPHGYQITSLRADKYGGYYAANFVGNEILYFDVNNNVNALVKDGFSYLKSPYDVIEANNLLYVTLYSSDEIGVYDKVLGVKRKSIGNKGTKDGELLAPQYMAIDKRNYIYVSEWGNKRVSKFGLEGDFILHFGSRTSGYKGLLGPTGVTYLNENIYVADSLRNTIEVFDTSGNHLYSVFTSIEGIEGLSSDFVGNNVIVSSKDGVYKYSIAKKTITKILKADKMNSKISSSILDANNQMIVSDFNNAKVSVYKSDASLYDSLNVDVRRIIRLGGPKIYVELNVSSKSGLPVVGLKSENFSISNENYYIVNPKVAYNVNASKDINIAVVFDKSSYMKKYDTDQIVGLNALMELSKNKNFSFINATSVPIIDNIESLTNSIRNTSSLGPYSTDAVKTDVSLKLAGSGLMSKSSRRAVVYFSGGILNRKAFEKYSLDTIVSYYKNNDIRFYLILFGNDPINSKLQYLVNETGGAVIPFSSYEGVSKVYDLILEQKTGTYLLEYYYPGPQEPNKYFNLSVEANINQQTGRGEFAYFIN”, the protein production result was “failed”.

As for “MLINKTKRAEQNLNNLPFLALQAEQIEFLGSSAEFKTQIIELIRNAKKRIYVTALYWQKDEAGQEILDEIYRVKQENPHLDVKVLIDWHRAQRNLLGAEKSATNADWYCEQRQTYQLPDDPNMFFGVPINTREVFGVLHVKGFVFDDTVLYSGASINNVYLHQFEKYRYDRYQKITHAELADSMVNFINDYLLDFSAVYPLDVTNRPRTKEIRGNIRAYRKDLAQNGEYSLKSAVKLPNVLSVSPLFGLGASGNELNQVIEDLFLQVQKKLVICTPYFNFPRTLQHKIATLLENGKRVEIIVGDKVANDFYIPPEQPFKMAGALPYLYESNLRRFCEKFETQIESGQLVVRLWRDGDNTYHLKGVWVDDRYILLTGNNLNPRAWRLDAENGLLIYDPQQQLLAQVEKEQNQIRQHTKVLKHYTELEELNQYPEPVQKLLKKFARIKADKLVKMILLEHHHHHH”, the protein production result was “not failed”.

Regarding “MLISHSDLNQQLKSAGIGFNATELHGFLSGLLCGGLKDQSWLPLLYQFSNDNHAYPTGLVQPVTELYEQISQTLSDVEGFTFELGLTEDENVFTQADSLSDWANQFLLGIGLAQPELAKEKGEIGEAVDDLQDICQLGYDEDDNEEELAEALEEIIEYVRTIAMLFYSHFNEGEIESKPVLH”, the protein production entry was “not failed”.

Regarding “MLKFPLCCSELSLEPKILAFESQLVSGRRDTIKVSAGKIGNFSLGSIFKSCETCGAKGAIECPGCKGTGKNKKNGNMFERWKCFDCQGFGMKSCPKCGKGGLTPEQRGER”, the protein production entry was “failed”.

Regarding “MLKGIPKIIPPELLKVLCEMGHGDQLVIADGNFPAESIGKNAIVVRMDGHGGGEILKAILTVFPLDTYVDKPATLMEKVPGDTVATPIWDVYAGLIKEHDERGADAIGSLERFAFYEQAKNAYCVIASGESAQYANLILQKGVVFNAE”, the protein production result is listed as “not failed”.

Regarding “MLKHFGSKVRNLRVTRNITREDFCGDETELSVRQLARIESGQSIPNLTKAHYIAKQLNVKLDILTGGESLELPKRYKELKYLILRIPTYADAERLKLRECQFDHIFEEFYDNLPEDECLAIDSLQAKFEVYQTGDINFGVEVLCECFDKVKYKEKYTLNDLIIIDLFLTCAVVSKFNNRAFTKEVFQTICKTLISQNHKLTAEDLFWFNHVLLNCVFVGLCLNSEECLAEMLEVSRQTMVSTHDFHKMPLYFMYQWKYFITIDNDIKSAENAYQQSIMFSKMIDDKHLIKKLELEWQEDITGH”, the protein production entry is on record as “failed”.

“MLKKLIEKVKSLTSVIKIVFFISVLVLIIVEMIHLKRTISVEQLKSVFGQLSPMNLFLIILVGVIAVLPTTGYDFVLNGLLRTDKSKRYILQTSWCINTFNNLSGFGGLIDIGLRMAFYGKKGQEKSDLREVTRFLPYLISGLSFISVIALIMSHIFHAKASVDYYYLVLIGASMYFPVIYWISGHKGSHYFGDMPSSTRIKLGVVSFFEWGCAAAAFIIIGYLMGIHLPVYKILPLFCIGCAVGIVSLIPGGLGSFELVLFTGFAAEGLPKETVVAWLLLYRLAYYIIPFFAGIYFFIHYLGSQINQRYENVPKELVSTVLQTMVSHLMRILGAFLIFSTAFFENITYIMWLQKLGLDPLQEQMLWQFPGLLLGVCFILLARTIDQKVKNAFPIAIIWITLTLFYLNLGHISWRLSFWFILLLLGLLVIKPTLYKKQFIYSWEERIKDGIIIVSLMGVLFYIAGLLFPIRAHITGGSIERLHYIIAWEPIALATLILTLVYLCLVKILQGKSCQIGDVFNVDRYKKLLQAYGGSSDSGLAFLNDKRLYWYQKNGEDCVAFQFVIVNNKCLIMGEPAGDDTYIREAIESFIDDADKLDYDLVFYSIGQKLTLLLHEYGFDFMKVGEDALVNLETFTLKGNKYKPFRNALNRVEKDGFYFEVVQSPHSQELLNSLEEISNTWLEGRPEKGFSLGYFNKDYFQQAPIALVKNAEHEVVAFANIMPNYEKSIISIDLMRHDKQKIPNGVMDFLFLSLFSYYQEKGYHYFDLGMAPLSGVGRVETSFAKERMAYLVYHFGSHFYSFNGLHKYKKKFTPLWSERYISCSRSSWLICAICALLMEDSKIKIVK”: the protein production result is reported as “failed”.

“MLKKLLLVSTVLLLSACSSRQYSESSLTQSKIDIYEQTQNYVALSDLYKAELKKEDSEEIREALAAALLHLEDPESALFYLKPNIENGASFQSYYLQASALGDLGKYPQAIKAALLSLEENPDNPETENLLGILYGHEYQYEKSRRYFQKAQLHFYDSNTIANNLAVLDIAEGNYKRAAQRLLPVYRSGQANEQVMANLILSMAKEQNLEFIQAVLGDKHTKKEIERIYQSLQRFNSLDIDTKKSV”: the protein production entry was “failed”.

With “MLKLHLSEEERVIFASNLVASKKRFTKMEKGRFGNFLDNAKIISHIINPCLYDVEDATGYFLYSFTLNDERPK”, the protein production entry is on record as “failed”.

Regarding “MLKLSCNVTDHIHNLFSNSRRIFVPVHRQTRPISCFQLKKEPLRAILSADHGNSSVRVADTVSGTSPADRLRFGRLMEDGFSYKEKFIVRSYEVGINKTATIETIANLLQEVACNHVQNVGFSTDGFATTLTMRKLHLIWVTARMHIEIYKYPAWSDVVEIETWCQSEGRIGTRRDWILKDCATGEVIGRATSKWVMMNQDTRRLQRVTDEVRDEYLVFCPPEPRLAFPEENNSSLKKIPKLEDPAQYSMLGLKPRRADLDMNQHVNNVTYIGWVLESIPQEIIDTHELKVITLDYRRECQQDDIVDSLTTSETPNEVVSKLTGTNGSTTSSKREHNESHFLHILRLSENGQEINRGRTQWRKKSSR”, the protein production entry is listed as “failed”.

Regarding “MLKSKRKEIILSRLEQNKSVTLDELTSILETSESTVRRDLDELESAGFLKRVHGGAELPYSLGQELSNQEKAIKNVQKKLDIARQTAKLIAKQDVIFIDAGTTTELLIDFLPHEQLTVVTNSIHHAAKLVDRGIKTIIIGGAVKHSTDASIGQVAINQIRQITVDKAFLGMNGIDEVYLTTPDLEEAAIKEAIINNSQQTFILMDSSKIGQVTFAKVKEINDINLVTNKTDSELMTIIKEKMKVIQV”, the protein production entry is “failed”.

On to “MLKTPSDAAVAGCLSLLLEVSGNPKAGNVDREHDFDDLKFEHFLASAAGAFPAFLEVAEKRIIGEGVLRAVKESMRWHRAENVHFGAFLLLVPLISSWDAG”, for which the protein production result is “not failed”.

As for “MLKTYQKLLAMGIFLIVLCSGNAAFAATNQVGGLSNVGFFHDYLIEPFSALLKGVAGLFHGEYGLSIILVTIIVRIVVLPLFVNQFKKQRIFQEKMAVIKPQVDSIQVKLKKTKDPEKQKELQMEMMKLYQEHNINPLAMGCLPMLIQSPIMIGLYYAIRSTPEIASHSFLWFSLGQSDILMSLSAGIMYFVQAYIAQKLSAKYSAVPQNPAAQQSAKLMVFIFPVMMTIFSLNVPAALPLYWFTSGLFLTVQNIVLQMTHHKSKKTAALTESVK”, the protein production result is given as “failed”.

For “MLLAMALLIIGLLLVAYGADRLVFAASILCRTFGIPPLIIGMTVVSIGTSLPEIIVSAAASLHGQLDLAVGAALGSNITNILLILGLAALVRPFTVHSDVLRRELPLMLFVSVVAGSVLHDGQLSRSDGIFLLLLAVLWLLFIVKIARLAERQGNDSLTREQLAELPREGGLPVAFLWLGIALVIMPMATRMVIDNATVLANYFAMSELTLGLTVIAVGTSLPELATAIAGVRKGENDIAVGNLIGANIFNLAIVLGLPALIAPGEINPLAFGRDYSVMLLVSVVFALLCWRHPRQIGRGAGILLTGGFIVWLAMLYWLSPLLVG”, the protein production entry is reported as “failed”.

“MLLENFYKIIHIKEREDGKQEIEIELNPGHVLYQGHFPGQPVVPGVCTLQIIKESAEQIASQPLQYVQIASSKFLSAINPLETPLLQLFIRLEKTEEHLFKLQAEGICNGKEFIKLKAVLMASKYQLEHHHHHH”: the protein production entry is given as “not failed”.

As for “MLLEVIPLTLPLLLTLLPIVVILVMLLVFRKAADVSGIIGWLAISVVAWLGFQTAPEVILRSTAAGFIRSFSVSLIVATSLLQMALMEKTGALRRITIFIRTIASDNRAVQIMMINIGFGTLMVAVGATPVSILPPILLAMGYSTYVAIALPAIGYDSLCTYALLGAPIVVFVDIANSFLGKGNEIALHQAGMVFYMFLPVVSTMIGFCMLWIVGKWQAIRDGWLPCLLTGAVIGVVARFTNQYDNLVVLTGVLCGIAVIAAMAAYLVVTGGKVIDRSLLSAEEREFAAAMPLWRAFMPWTLLVILILVLNVPQDLFSWLYRTMKLPIAGLTADGKPLDTRALWQAYTWILVSTILAVPFLKPTGEQLRETVRTWVRRAPRPVFAAAVFFAIGEIMNMAGYDMAAGRFVVPSMVTVLADSSALAFQGMYGEVVAFIGLFGGFITGSEASTIAMFAKYTMTTAKNLDMPLSGLIIVTAGLAFGGGLASVISPAKLQNAAAAIDRIGEEGKVIRIAFVFALLLTLVTSLFVVVLLTVNGMGRVS”, the protein production entry is “failed”.
